By Kd is commonly meant a measure of binding affinity in units of concentration.

This data set concerns the molecule itself. The data set is described as follows: AUC.

B1: MASP-1 (protein)
chain: HTVELNNMFGQIQSPGYPDSYPSDSEVTWNITVPDGFRIKLYFMHFNLESSYLCEYDYVKVETEDQVLATFCGRETTDTEQTPGQEVVLSPGSFMSITFRSDFSNEERFTGFDAHYMAVDVDECKEREDEELSCDHYCHNYIGGYYCSCRFGYILHTDNRTCRVECSDNLFTQRTGVITSPDFPNPYPKSSECLYTIELEEGFMVNLQFEDIFDIEDHPEVPCPYDYIKIKVGPKVLGPFCGEKAPEPISTQSHSVLILFHSDNSGENRGWRLSYRAAGNECPELQPPVHGKIEPSQAKYFFKDQVLVSCDTGYKVLKDNVEMDTFQIECLKDGTWSNKIPTCKIVDCRAPGELEHGLITFSTRNNLTTYKSEIKYSCQEPYYKMLNNNTGIYTCSAQGVWMNKVLGRSLPTCLPVCGLPKFSRKLMARIFNGRPAQKGTTPWIAMLSHLNGQPFCGGSLLGSSWIVTAAHCLHQSLDPEDPTLRDSDLLSPSDFKIILGKHWRLRSDENEQHLGVKHTTLHPQYDPNTFENDVALVELLESPVLNAFVMPICLPEGPQQEGAMVIVSGWGKQFLQRFPETLMEIEIPIVDHSTCQKAYAPLKKKVTRDMICAGEKEGGKDACAGDSGGPMVTLNRERGQWYLVGTVSWGDDCGKKDRYGVYSYIHHNKDWIQRVTGVRN
As to B1, the Kd was < 10 nM.

B2: MASP-2 (protein)
chain: TPLGPKWPEPVFGRLASPGFPGEYANDQERRWTLTAPPGYRLRLYFTHFDLELSHLCEYDFVKLSSGAKVLATLCGQESTDTERAPGKDTFYSLGSSLDITFRSDYSNEKPFTGFEAFYAAEDIDECQVAPGEAPTCDHHCHNHLGGFYCSCRAGYVLHRNKRTCSALCSGQVFTQRSGELSSPEYPRPYPKLSSCTYSISLEEGFSVILDFVESFDVETHPETLCPYDFLKIQTDREEHGPFCGKTLPHRIETKSNTVTITFVTDESGDHTGWKIHYTSTAQPCPYPMAPPNGHVSPVQAKYILKDSFSIFCETGYELLQGHLPLKSFTAVCQKDGSWDRPMPACSIVDCGPPDDLPSGRVEYITGPGVTTYKAVIQYSCEETFYTMKVNDGKYVCEADGFWTSSKGEKSLPVCEPVCGLSARTTGGRIYGGQKAKPGDFPWQVLILGGTTAAGALLYDNWVLTAAHAVYEQKHDASALDIRMGTLKRLSPHYTQAWSEAVFIHEGYTHDAGFDNDIALIKLNNKVVINSNITPICLPRKEAESFMRTDDIGTASGWGLTQRGFLARNLMYVDIPIVDHQKCTAAYEKPPYPRGSVTANMLCAGLESGGKDSCRGDSGGALVFLDSETERWFVGGIVSWGSMNCGEAGQYGVYTKVINYIPWIENIISDF
As to B2, the dissociation constant (Kd) is < 10 nM.

The record behind these values is article PMC5300068 (2017).
